Source: the supplement of paper PMC9112550, “Optimization of the antimicrobial peptide Bac7 by deep mutational scanning” (BMC Biology, 2022)

Test system: Escherichia coli TOP10
Assay: shrunken log2 fold change of peptide-encoding DNA abundance (4.5 h post-induction vs induction); higher = less antimicrobial activity (less host growth inhibition)
Settings: time post-induction: 4.5 h; library: site-saturation at positions 5, 18, 19, 20
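Note: peptides expressed intracellularly from a pBAD plasmid library in pooled LB shake-flask culture, induced with 0.3% L-arabinose, DNA abundance read by NGS, three biological replicates, DESeq2 with apeglm shrinkage.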

Row | Sequence | shrunken log2 fold change
1 | RRIRRRPPRLPRPRPRPTQPPRP | 0.155
2 | RRIRRRPPRLPRPRPRPTSAPRP | 0.274
3 | RRIRRRPPRLPRPRPRPTSHPRP | 0.321
4 | RRIRRRPPRLPRPRPRPTVWPRP | 0.359
5 | RRIRRRPPRLPRPRPRPTYDPRP | 0.0415
6 | RRIRRRPPRLPRPRPRPTYKPRP | -0.163
7 | RRIRRRPPRLPRPRPRPTYNPRP | -0.267
8 | RRIRRRPPRLPRPRPRPTYRPRP | 0.309
9 | RRIRRRPPRLPRPRPRPVAAPRP | 1.42
10 | RRIRRRPPRLPRPRPRPVCCPRP | 0.158
11 | RRIRRRPPRLPRPRPRPVCPPRP | 0.32
12 | RRIRRRPPRLPRPRPRPVCRPRP | 0.562
13 | RRIRRRPPRLPRPRPRPVFDPRP | 0.348
14 | RRIRRRPPRLPRPRPRPVHCPRP | 0.345
15 | RRIRRRPPRLPRPRPRPVIFPRP | 0.145
16 | RRIRRRPPRLPRPRPRPVKKPRP | 0.0447
17 | RRIRRRPPRLPRPRPRPVLIPRP | 0.177
18 | RRIRRRPPRLPRPRPRPVMEPRP | 0.305
19 | RRIRRRPPRLPRPRPRPVNKPRP | 0.169
20 | RRIRRRPPRLPRPRPRPVNSPRP | -0.0287
21 | RRIRRRPPRLPRPRPRPVTEPRP | 0.285
22 | RRIRRRPPRLPRPRPRPVTSPRP | 0.0312
23 | RRIRRRPPRLPRPRPRPVYAPRP | 0.21
24 | RRIRRRPPRLPRPRPRPVYDPRP | -0.331
25 | RRIRRRPPRLPRPRPRPVYLPRP | -0.173

Row | Sequence | shrunken log2 fold change
26 | RRIRRRPPRLPRPRPRPVYMPRP | -0.0789
27 | RRIRRRPPRLPRPRPRPWAEPRP | 2.36
28 | RRIRRRPPRLPRPRPRPWCEPRP | -0.0981
29 | RRIRRRPPRLPRPRPRPWCHPRP | -0.0754
30 | RRIRRRPPRLPRPRPRPWDDPRP | -0.0642
31 | RRIRRRPPRLPRPRPRPWEAPRP | 0.155
32 | RRIRRRPPRLPRPRPRPWFTPRP | 0.0255
33 | RRIRRRPPRLPRPRPRPWGDPRP | -0.0841
34 | RRIRRRPPRLPRPRPRPWGEPRP | 2.96
35 | RRIRRRPPRLPRPRPRPWGQPRP | 0.0104
36 | RRIRRRPPRLPRPRPRPWGTPRP | -0.0589
37 | RRIRRRPPRLPRPRPRPWHFPRP | 0.121
38 | RRIRRRPPRLPRPRPRPWISPRP | -0.382
39 | RRIRRRPPRLPRPRPRPWKEPRP | -0.00773
40 | RRIRRRPPRLPRPRPRPWLQPRP | 0.0763
41 | RRIRRRPPRLPRPRPRPWMLPRP | 0.227
42 | RRIRRRPPRLPRPRPRPWMQPRP | 0.0811
43 | RRIRRRPPRLPRPRPRPWPMPRP | -0.157
44 | RRIRRRPPRLPRPRPRPWRNPRP | 0.0985
45 | RRIRRRPPRLPRPRPRPWSTPRP | -0.0543
46 | RRIRRRPPRLPRPRPRPWTIPRP | -0.189
47 | RRIRRRPPRLPRPRPRPWTLPRP | -0.195
48 | RRIRRRPPRLPRPRPRPWWNPRP | -0.188
49 | RRIRRRPPRLPRPRPRPYASPRP | -0.0782
50 | RRIRRRPPRLPRPRPRPYCFPRP | -0.37

Row | Sequence | shrunken log2 fold change
51 | RRIRRRPPRLPRPRPRPYDRPRP | -0.164
52 | RRIRRRPPRLPRPRPRPYDTPRP | 0.0504
53 | RRIRRRPPRLPRPRPRPYFEPRP | -0.562
54 | RRIRRRPPRLPRPRPRPYGEPRP | -0.0212
55 | RRIRRRPPRLPRPRPRPYGFPRP | -0.298
56 | RRIRRRPPRLPRPRPRPYHCPRP | -0.37
57 | RRIRRRPPRLPRPRPRPYIDPRP | -0.339
58 | RRIRRRPPRLPRPRPRPYIHPRP | -0.794
59 | RRIRRRPPRLPRPRPRPYKWPRP | -0.138
60 | RRIRRRPPRLPRPRPRPYLEPRP | -0.298
61 | RRIRRRPPRLPRPRPRPYMEPRP | -0.0924
62 | RRIRRRPPRLPRPRPRPYMVPRP | -0.361
63 | RRIRRRPPRLPRPRPRPYPHPRP | -0.181
64 | RRIRRRPPRLPRPRPRPYQGPRP | -0.00892
65 | RRIRRRPPRLPRPRPRPYREPRP | -0.344
66 | RRIRRRPPRLPRPRPRPYTGPRP | -0.126
67 | RRIRRRPPRLPRPRPRPYTPPRP | -0.225
68 | RRIRRRPPRLPRPRPRPYVHPRP | -0.356
69 | RRIRRRPPRLPRPRPRPYVPPRP | -0.241
70 | RRIRRRPPRLPRPRPRPYVTPRP | -0.383
71 | RRIRRRPPRLPRPRPRPYYAPRP | -0.561
72 | RRIRRRPPRLPRPRPRPYYLPRP | -0.308
73 | RRIRRRPPRLPRPRPRPYYNPRP | -0.807
74 | RRIRSRPPRLPRPRPRPACLPRP | 0.0251
75 | RRIRSRPPRLPRPRPRPACVPRP | 0.224
